# Test results reported in the domain aggregation screens of Martell et al. (2025).
# Assay: soluble fraction after stress (log2 fold change); higher = more stays soluble; pooled small domains, quantitative proteomics
# Details: stress: 50 degC
# Summary of the method: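 Custom libraries of small protein domains were pooled and measured in a high-throughput format, with quantitative proteomics as the read-out. Each library was stressed at 50°C. The value is the log2 fold change in the amount of each protein that stays soluble after stress, used as a measure of aggregation propensity; higher values mean more of the protein stays soluble.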
row,Sequence,soluble fraction (log2)
1,HMQMSPREKMIYSFIESHPGTKSGEIAEKLNVPLPTVKRILSEMVSGNFIAKHGSGIGTNYSTEK,0.233
2,HMKNFAPVWGEEGAEFGKEVDTGFRLRIVEKEKDVNDLFEVIQKHTIQSQWKPGSTGTESIYKRI,0.37
3,HMGTGSSAERITMLNSILERQIQAMEIQGNPDAPIVNIQKIYTTLQRIVETAGLKDVDQFFMNPLQGQKEM,-0.253
4,HMLLLASTPAEQTIIQLLAEGWRDGDQLQQRSHLSAADFSTALTMLEVNGSIKPLGANHWALTH,-0.919
5,HMSDTFENILQRLIKATGRKNASEMANALGLSPQSVYSAKTKGKIPPAWIFAAAERFNASADWIYFGY,-1.01
6,HMVITQVSTTQTDTTFQYHKVKPKETLFSISRLYEVSIDEIKTINPALNSRELMAGELLKLPIK,-0.0212
7,HMARRKRDIDSDINVKVFEHWLDNLDSASRESFSAFAEETFSPIQVYLYAKFLGYESSIIAVDHWVAVAYP,0.104
8,HMRATLTDETARVVQEPTSESISLTSLRKGEEFEIGKVIRKKKEVWVTVTTSSGVKGYISGDTHIF,-0.0573
9,HMRSEILNLLREKSPQPVSGQDLANHFGITRTAVWKHIQSLKKMGYGIEAYTKKGYVLVSVPN,-0.0638
10,HMTQHDIVPLMLKMVDVLTQFVELDIPFLQQERQTRLAALNAMMGRADVSLAEKYRRIMEAYQVETEYG,-0.0938
11,HMLVATFGPTTGWEGREIIWDVDRFILVGHGAVPAAGVLDYDRRGQLIWAQPELRAWVVEVDRWETG,-1.97
12,HMSETQDQTTIEIEDMITVGTLAERLSIPVSTLIGELMKNGVMATVNEKIDFDTAQIIVGELKLPIELSKK,0.201
13,HMILQTLSERVTETLRDWILHGHFKPGDKIEEVPIAERMGVSRTPVRAAFATLTNEGLIDHQPNRGYQVRV,-0.325
14,HMRPKVADIDYFDGKTFTIEDGSKHSITTSEAKKIYFYLVKNGYVDDESHVTDAYRSAATSGTLA,-0.0505
15,HMTPQVALNDTETAIYEKMKQEKQMLLGELRAQFDISNKLWDTSLKTLTKNQLLAVSKEDDLLFVKL,0.113
16,HMEVNLEPLIALLRKHRDLDLSGYSKSTLGRRITYFMGLNKISSIDELGRRLAEDDLLFQEFLDKLT,-0.0655
17,HMTESFEFTMNDLVQNNLIMGSGAKERRIAVGEALGIGYTNAKQFLSRLNHYGITRKEFDDEIEKVNQN,-0.158
18,HMFEDYLRMKGLSIVSFSKQTGIPISTLRNLNKIRYDKWKIRYLEELSNVLNKTIQEIIEELKNMG,-2.32
19,HMEHAETDTRERILVVAERLFRQLGYQKTTVADIAKELRMSPANVYRFFDSKKSIHEGVARTL,-0.228
20,HMDDAIAEKTGGAVSSVNQRQAILDHIREAYGIELESLRSTDIERYLDDPEIPEPVKDILRDRLRGAK,0.181
21,HMNITHEINVKSKSKIDFLENNKNLAQFFLTKNPNQFNYNLVFSDKSELNIIKEKIESHKDIEDIDIRYG,0.0125
22,HMTVVLPGESLTVNIIQEGKELGQGVGYLDDGTMVVIEDGRRYIDQTIEVTVTRVLQTVAGRMIFAQLT,-0.646
23,HMRSRHYRFSTPFLDRLIAEIDWNSDNALSIFNQKLVHFDFLKYFSAIQPGSIVEIENLNFIWTGKRLEAH,-2.55
24,HMLTKSELVFDTLKKRIIDGELEPGTELVISRISEEFNVSTIPVREAIKTLASEGLVEMEPHKSAKVAE,-0.0631
25,HMNNIIEQIKADIKKLEEKLDKSSENALNKLEKDYSSLSTESKKKLDDAGYGARIKALRVKFAALSTQ,0.0666
26,HMLAGVDTLADRELEVFQMLGRGKSTKEIAQVLNLGESTVETYRARIKEKLQLRSAAELYLRAGQWVRDHG,-0.184
27,HMFTDAEIKQFAAAAVEVTKIQQDSTISAADKQPKMLAVVQSSGLPPEKFNQIGQAAAADPALQQRIQA,0.156
28,HMGTSFKITFYKDAFQVDDGPIRMLNDPANQKFVDEVSQGYAPKELIGQGGKAPEIDIIDKRSENAPT,0.128

row,Sequence,soluble fraction (log2)
1,HMESSYKGFILDIETRQFSPTLIQRRGIAINPSGIVETTTEFSFATQEKVLIEDLKLIIDELDLRADY,-4.07
2,HMTERIRLHDDIGSWVEKHGATRSALIPVLQGIQRSYNEISEYAMQEVADRLDIHPVEVYSVVSFYSF,-0.0419
3,HMFEFFKGIYSISLLKKDGIFFVTFKDENKEAVKHIFPEKPTALELGIKVMEMFEYKERYDGII,-0.227
4,HMKTSTGSAMYLTLDLAEKYAGQAFTLVHKKADGTFEYLYATADVDGKVKFGPVYELSPFMLVKGQL,-0.291
5,HMGPWTETAAKGDAVSKRMLITWLQENADAEFLAAQKLTGQATSVAKRVTKDQLVELYLSVTTAA,-0.53
6,HMFERISELLTDEELAVYKRGRNANASSVPKHADIADYRRATGVEALFGYLYIKGEIDRINQLFELA,-0.23
7,HMDNPLSQQEKRILQLISLGKTNQEIADILYLSNGTVRNYISSILNKLSANNRVEAARIAEEHGW,-0.73
8,HMSKIRSEINKFSSDADKPILEWLFERYHWASQWRFVARFSEQRYGVLSYEINRVWEPTIEGRALYDQL,-2.34
9,HMEEIALTDILNRFLSSLSLEQRKIFMRRYWYLSPIKEIATEYGMSESKIKMSLFRSRNELKKLLEKEGI,-0.396
10,HMATLQLPVPKITLYPGELIRSDHLTDQRFNARALYHSAVYKSREDIVGKVARRTLLPGQPIPVNALR,-0.057
11,HMTSEPFYNPRRPQPYWTSETDRHTTYADAVRALAREFSETPEWVESNMGETNDLQEIRRNLSRVKSG,0.144
12,HMQNYNLTQQEKKVLQLLVSGKSYKMIAAELNVAFDTVKSHITNIYSKLHVHSGTEAVSVAIRDKI,-0.444
13,HMQFQVHEIKGKEYYIHVVEKGNTLYAISRMYSVPIETLKEENPRLNTTELTIGDRLLIPLDEVKRKNIE,-0.128
14,HMLSNKIEQLRKEKGYTFAKLSELSGISTGRLSDLATGKRNNPTMDTLIKLADALDVTLDELVGR,0.14
15,HMDSPRITMDQLRIGLYVYLDLTWFQHPFAFSHFKINSEDQIKTILGLGLKSVRYDPALSDPV,-2.67
16,HMIGRRLKVARASAGLSLRELAARMDGVVTPQAIGKYERNEDMPGSRALMALASALGVSEGYLLSD,-0.831
17,HMKEIKAPNKINAHLIEEWRSQHPTELFPEEKVDLIYYKGEEYYFVIEEKNELGEIEEWYFAYDGGIDYV,0.106
18,HMENLVPVVVATTNIEPRTQITDAMVKVEQIPALGRNESMLEDPALVVGGYATGKIYAGQSFIQPMVSK,0.179
19,HMDPERVVGQTGIVHLRIPARQHNTGKVMIEVQGSLREFDAVSEAEEIPTGTPILIVGRTEEGVFIAQPF,-0.0467
20,HMEAPNELLVPEGARPARADRVLAAAFPEHSRTALQRAFDAGLVRRANLVLSRDTAVAGGDRIAFSLPAV,-0.00557
21,HMDVNPETLSYYIERADISLDELRTSVKGIDLFLTGEKQPTFNQISNIAKKLNIPTGLLLINKPIEI,-0.375
22,HMDVLSPEEWIEFRTAYNNNRYISQYGSKGATIEDDYATRLAMIGGKESYYFLNDPRWTEPGYGNLK,-0.437
23,HMVRDGDTFVVPKMDRFARNVEDTLHLVRELTERGVIFQMGHTVYDPHDPWSKLFLTFLAAIAEA,-0.00927
24,HMVSTSVTVTGDLNVRADSRADSDLVGALIPGQTVTRLAVLDNGWSKIRFDDGAGTVVEGYVLSEYLQADG,0.0817
25,HMKSTPMYATAIVNIRSKAGTDSEILGKLNPSEEISVISSENGWSKVSYNGKEAYISSNYLSNAKP,-0.175
26,HMTHPAHLARIGALIRSARQHEGLTQAQLAELLGTSQSAIHRIEQGGQNITLDMLTRISAALDSEIVTIG,-0.921
27,HMKIDLTPQEEKIYSVLETELTLDEIIMKTSIKAGEALAILMDLELKKLVASVAGGKYRRKA,0.0271
